From patent US20110142868A1 (CHIRALIX B V, published 2011)
Square brackets hold non-standard residues; d marks the D form. * marks the point of attachment. Orn(fluoroacetimidoyl) = N=C(CF)NCCC[C@H](N)C(=O)O; 2Naphthylsulfonyl = O=S(=O)(c1ccc2ccccc2c1)*; AEEA = NCCOCCOCC(=O)O

Assays:
Experiment in all cases: cell-based or functional assay
recombinant human PAD4 [1] = target: T1, recombinant human PAD4 (human, UniProt Q9UM07 1-663)
recombinant human PAD2 [2] = target: T2, recombinant human PAD2 (human, UniProt Q9Y2J8 1-665)
recombinant human PAD4 [3] = target: T1, recombinant human PAD4; remark: listed apart in the source
recombinant human PAD2 [4] = target: T2, recombinant human PAD2; remark: listed apart in the source
recombinant human PAD2 [5] = target: T2, recombinant human PAD2; remark: listed apart in the source
recombinant human PAD4 [6] = target: T1, recombinant human PAD4; remark: listed apart in the source

T2 sequence (Q9Y2J8 whole entry): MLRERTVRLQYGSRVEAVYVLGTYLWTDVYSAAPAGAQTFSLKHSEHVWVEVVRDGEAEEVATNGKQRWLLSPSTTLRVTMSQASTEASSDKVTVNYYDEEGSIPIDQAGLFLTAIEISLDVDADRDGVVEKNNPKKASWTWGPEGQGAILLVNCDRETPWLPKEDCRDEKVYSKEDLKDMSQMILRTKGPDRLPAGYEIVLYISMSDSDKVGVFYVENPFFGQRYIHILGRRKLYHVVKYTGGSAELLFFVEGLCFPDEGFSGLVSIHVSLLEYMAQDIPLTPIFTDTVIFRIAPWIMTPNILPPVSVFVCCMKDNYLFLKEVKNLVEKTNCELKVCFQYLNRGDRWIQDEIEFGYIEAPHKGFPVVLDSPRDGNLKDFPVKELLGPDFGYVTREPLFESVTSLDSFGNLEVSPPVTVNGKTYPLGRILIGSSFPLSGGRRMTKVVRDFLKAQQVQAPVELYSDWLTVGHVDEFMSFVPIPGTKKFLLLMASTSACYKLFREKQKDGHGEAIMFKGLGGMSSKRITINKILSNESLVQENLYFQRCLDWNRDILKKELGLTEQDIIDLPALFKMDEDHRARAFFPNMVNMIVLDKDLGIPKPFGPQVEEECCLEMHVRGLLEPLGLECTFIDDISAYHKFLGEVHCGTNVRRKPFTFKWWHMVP
T1 sequence (Q9UM07 whole entry): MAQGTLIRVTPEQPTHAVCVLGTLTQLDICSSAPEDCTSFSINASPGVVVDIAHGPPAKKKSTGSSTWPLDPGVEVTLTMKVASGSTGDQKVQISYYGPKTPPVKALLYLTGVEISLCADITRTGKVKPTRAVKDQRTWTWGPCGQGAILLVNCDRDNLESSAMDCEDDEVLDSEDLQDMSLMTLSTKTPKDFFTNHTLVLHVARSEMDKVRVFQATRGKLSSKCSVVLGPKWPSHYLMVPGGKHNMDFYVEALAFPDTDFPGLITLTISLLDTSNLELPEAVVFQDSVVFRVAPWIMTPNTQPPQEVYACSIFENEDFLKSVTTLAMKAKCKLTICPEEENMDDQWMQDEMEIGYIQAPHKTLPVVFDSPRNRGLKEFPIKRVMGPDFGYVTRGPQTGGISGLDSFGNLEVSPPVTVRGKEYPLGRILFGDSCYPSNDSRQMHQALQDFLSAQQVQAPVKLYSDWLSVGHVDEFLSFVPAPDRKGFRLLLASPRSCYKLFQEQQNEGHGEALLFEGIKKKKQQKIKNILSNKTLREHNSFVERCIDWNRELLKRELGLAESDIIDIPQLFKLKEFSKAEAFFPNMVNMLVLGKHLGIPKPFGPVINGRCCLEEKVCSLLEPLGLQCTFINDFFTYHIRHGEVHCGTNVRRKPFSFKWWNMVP

B1: 0748-01FA (peptide)
peptide: Ac-HFD[Orn(fluoroacetimidoyl)]EWI-NH2
SMILES: CC[C@H](C)[C@H](NC(=O)[C@H](Cc1c[nH]c2ccccc12)NC(=O)[C@H](CCC(=O)O)NC(=O)[C@H](CCCNC(=N)CF)NC(=O)[C@H](CC(=O)O)NC(=O)[C@H](Cc1ccccc1)NC(=O)[C@H](Cc1c[nH]cn1)NC(C)=O)C(N)=O
Recombinant human PAD4 [1]
  conversion of 0708-30 by PAD4, 10 µM inhibitor (0 µM: 81): 50%
  conversion of 0708-30 by PAD4, 50 µM inhibitor (0 µM: 81): 25%
  conversion of 0708-30 by PAD4, 100 µM inhibitor (0 µM: 81): 12%
Recombinant human PAD2 [2]
  conversion of 0708-30 by PAD2, 10 µM inhibitor (0 µM: 68): 67%
  conversion of 0708-30 by PAD2, 50 µM inhibitor (0 µM: 68): 36%
  conversion of 0708-30 by PAD2, 100 µM inhibitor (0 µM: 68): 21%

B2: 0837-29FA (peptide)
peptide: 2Naphthylsulfonyl-KFD[Orn(fluoroacetimidoyl)]DFI-NH2
Recombinant human PAD4 [3]
  Inhibition of PAD4: value at 10 µM inhibitor (0 µM: 71): 33%
  Inhibition of PAD4: value at 20 µM inhibitor (0 µM: 71): 16%
  Inhibition of PAD4: value at 40 µM inhibitor (0 µM: 71): 10%
  Inhibition of PAD4: value at 80 µM inhibitor (0 µM: 71): 5%
Recombinant human PAD2 [4]
  Inhibition of PAD2: value at 10 µM inhibitor (0 µM: 74): 16%
  Inhibition of PAD2: value at 20 µM inhibitor (0 µM: 74): 9%
  Inhibition of PAD2: value at 40 µM inhibitor (0 µM: 74): 5%
  Inhibition of PAD2: value at 80 µM inhibitor (0 µM: 74): 2%

B3: 0748-17FA (peptide)
peptide: Ac-KLH[Orn(fluoroacetimidoyl)]EWM-NH2
SMILES: CSCC[C@H](NC(=O)[C@H](Cc1c[nH]c2ccccc12)NC(=O)[C@H](CCC(=O)O)NC(=O)[C@H](CCCNC(=N)CF)NC(=O)[C@H](Cc1c[nH]cn1)NC(=O)[C@H](CC(C)C)NC(=O)[C@H](CCCCN)NC(C)=O)C(N)=O
Recombinant human PAD4 [1]
  conversion of 0708-30 by PAD4, 10 µM inhibitor (0 µM: 81): 64%
  conversion of 0708-30 by PAD4, 50 µM inhibitor (0 µM: 81): 32%
  conversion of 0708-30 by PAD4, 100 µM inhibitor (0 µM: 81): 18%
Recombinant human PAD2 [2]
  conversion of 0708-30 by PAD2, 10 µM inhibitor (0 µM: 68): 58%
  conversion of 0708-30 by PAD2, 50 µM inhibitor (0 µM: 68): 35%
  conversion of 0708-30 by PAD2, 100 µM inhibitor (0 µM: 68): 24%

B4: 0837-14FA (peptide)
peptide: Ac-KWH[Orn(fluoroacetimidoyl)]DFF[AEEA]-NH2
SMILES: CC(=O)N[C@@H](CCCCN)C(=O)N[C@@H](Cc1c[nH]c2ccccc12)C(=O)N[C@@H](Cc1c[nH]cn1)C(=O)N[C@@H](CCCNC(=N)CF)C(=O)N[C@@H](CC(=O)O)C(=O)N[C@@H](Cc1ccccc1)C(=O)N[C@@H](Cc1ccccc1)C(=O)NCCOCCOCC(N)=O
Recombinant human PAD4 [3]
  Inhibition of PAD4: value at 10 µM inhibitor (0 µM: 67): 54%
  Inhibition of PAD4: value at 20 µM inhibitor (0 µM: 67): 39%
  Inhibition of PAD4: value at 40 µM inhibitor (0 µM: 67): 29%
  Inhibition of PAD4: value at 80 µM inhibitor (0 µM: 67): 21%
Recombinant human PAD2 [4]
  Inhibition of PAD2: value at 10 µM inhibitor (0 µM: 76): 38%
  Inhibition of PAD2: value at 20 µM inhibitor (0 µM: 76): 24%
  Inhibition of PAD2: value at 40 µM inhibitor (0 µM: 76): 14%
  Inhibition of PAD2: value at 80 µM inhibitor (0 µM: 76): 8%

B5: 0741-03FA (peptide)
peptide: Ac-FFDSHKFD[Orn(fluoroacetimidoyl)]DFIYSD-NH2
SMILES: CC[C@H](C)[C@H](NC(=O)[C@H](Cc1ccccc1)NC(=O)[C@H](CC(=O)O)NC(=O)[C@H](CCCNC(=N)CF)NC(=O)[C@H](CC(=O)O)NC(=O)[C@H](Cc1ccccc1)NC(=O)[C@H](CCCCN)NC(=O)[C@H](Cc1c[nH]cn1)NC(=O)[C@H](CO)NC(=O)[C@H](CC(=O)O)NC(=O)[C@H](Cc1ccccc1)NC(=O)[C@H](Cc1ccccc1)NC(C)=O)C(=O)N[C@@H](Cc1ccc(O)cc1)C(=O)N[C@@H](CO)C(=O)N[C@@H](CC(=O)O)C(N)=O
Recombinant human PAD2 [5]
  conversion of 0708-30 by PAD2, 10 µM inhibitor: 39%
  conversion of 0708-30 by PAD2, 50 µM inhibitor: 13%
  conversion of 0708-30 by PAD2, 100 µM inhibitor: 6%
Recombinant human PAD4 [6]
  conversion of 0708-30 by PAD4, 10 µM inhibitor: 45%
  conversion of 0708-30 by PAD4, 50 µM inhibitor: 12%
  conversion of 0708-30 by PAD4, 100 µM inhibitor: 9%

B6: 0748-25FA (peptide)
peptide: Ac-KHD[Orn(fluoroacetimidoyl)]DFL-NH2
SMILES: CC(=O)N[C@@H](CCCCN)C(=O)N[C@@H](Cc1c[nH]cn1)C(=O)N[C@@H](CC(=O)O)C(=O)N[C@@H](CCCNC(=N)CF)C(=O)N[C@@H](CC(=O)O)C(=O)N[C@@H](Cc1ccccc1)C(=O)N[C@@H](CC(C)C)C(N)=O
Recombinant human PAD4 [1]
  conversion of 0708-30 by PAD4, 10 µM inhibitor (0 µM: 81): 45%
  conversion of 0708-30 by PAD4, 50 µM inhibitor (0 µM: 81): 18%
  conversion of 0708-30 by PAD4, 100 µM inhibitor (0 µM: 81): 12%
Recombinant human PAD2 [2]
  conversion of 0708-30 by PAD2, 10 µM inhibitor (0 µM: 68): 47%
  conversion of 0708-30 by PAD2, 50 µM inhibitor (0 µM: 68): 20%
  conversion of 0708-30 by PAD2, 100 µM inhibitor (0 µM: 68): 11%

B7: 0837-30FA (peptide)
peptide: 2Naphthylsulfonyl-KWH[Orn(fluoroacetimidoyl)]DFF-NH2
SMILES: N=C(CF)NCCC[C@H](NC(=O)[C@H](Cc1c[nH]cn1)NC(=O)[C@H](Cc1c[nH]c2ccccc12)NC(=O)[C@H](CCCCN)NS(=O)(=O)c1ccc2ccccc2c1)C(=O)N[C@@H](CC(=O)O)C(=O)N[C@@H](Cc1ccccc1)C(=O)N[C@@H](Cc1ccccc1)C(N)=O
Recombinant human PAD4 [3]
  Inhibition of PAD4: value at 10 µM inhibitor (0 µM: 67): 37%
  Inhibition of PAD4: value at 20 µM inhibitor (0 µM: 67): 24%
  Inhibition of PAD4: value at 40 µM inhibitor (0 µM: 67): 13%
  Inhibition of PAD4: value at 80 µM inhibitor (0 µM: 67): 7%
Recombinant human PAD2 [4]
  Inhibition of PAD2: value at 10 µM inhibitor (0 µM: 76): 9%
  Inhibition of PAD2: value at 20 µM inhibitor (0 µM: 76): 3%
  Inhibition of PAD2: value at 40 µM inhibitor (0 µM: 76): 2%
  Inhibition of PAD2: value at 80 µM inhibitor (0 µM: 76): 1%

B8: 0837-13FA (peptide)
peptide: Ac-KFD[Orn(fluoroacetimidoyl)]DFI[AEEA]-NH2
SMILES: CC[C@H](C)[C@H](NC(=O)[C@H](Cc1ccccc1)NC(=O)[C@H](CC(=O)O)NC(=O)[C@H](CCCNC(=N)CF)NC(=O)[C@H](CC(=O)O)NC(=O)[C@H](Cc1ccccc1)NC(=O)[C@H](CCCCN)NC(C)=O)C(=O)NCCOCCOCC(N)=O
Recombinant human PAD4 [3]
  Inhibition of PAD4: value at 10 µM inhibitor (0 µM: 71): 48%
  Inhibition of PAD4: value at 20 µM inhibitor (0 µM: 71): 33%
  Inhibition of PAD4: value at 40 µM inhibitor (0 µM: 71): 23%
  Inhibition of PAD4: value at 80 µM inhibitor (0 µM: 71): 16%
Recombinant human PAD2 [4]
  Inhibition of PAD2: value at 10 µM inhibitor (0 µM: 74): 43%
  Inhibition of PAD2: value at 20 µM inhibitor (0 µM: 74): 30%
  Inhibition of PAD2: value at 40 µM inhibitor (0 µM: 74): 20%
  Inhibition of PAD2: value at 80 µM inhibitor (0 µM: 74): 11%

B9: 0837-27FA (peptide)
peptide: 2Naphthylsulfonyl-KFD[Orn(fluoroacetimidoyl)]DFI[AEEA]-NH2
SMILES: CC[C@H](C)[C@H](NC(=O)[C@H](Cc1ccccc1)NC(=O)[C@H](CC(=O)O)NC(=O)[C@H](CCCNC(=N)CF)NC(=O)[C@H](CC(=O)O)NC(=O)[C@H](Cc1ccccc1)NC(=O)[C@H](CCCCN)NS(=O)(=O)c1ccc2ccccc2c1)C(=O)NCCOCCOCC(N)=O
Recombinant human PAD4 [3]
  Inhibition of PAD4: value at 10 µM inhibitor (0 µM: 71): 35%
  Inhibition of PAD4: value at 20 µM inhibitor (0 µM: 71): 20%
  Inhibition of PAD4: value at 40 µM inhibitor (0 µM: 71): 12%
  Inhibition of PAD4: value at 80 µM inhibitor (0 µM: 71): 7%
Recombinant human PAD2 [4]
  Inhibition of PAD2: value at 10 µM inhibitor (0 µM: 74): 24%
  Inhibition of PAD2: value at 20 µM inhibitor (0 µM: 74): 14%
  Inhibition of PAD2: value at 40 µM inhibitor (0 µM: 74): 7%
  Inhibition of PAD2: value at 80 µM inhibitor (0 µM: 74): 4%

B10: 0741-02FA (peptide)
peptide: Ac-FFDSHKWH[Orn(fluoroacetimidoyl)]DFFYSD-NH2
SMILES: CC(=O)N[C@@H](Cc1ccccc1)C(=O)N[C@@H](Cc1ccccc1)C(=O)N[C@@H](CC(=O)O)C(=O)N[C@@H](CO)C(=O)N[C@@H](Cc1c[nH]cn1)C(=O)N[C@@H](CCCCN)C(=O)N[C@@H](Cc1c[nH]c2ccccc12)C(=O)N[C@@H](Cc1c[nH]cn1)C(=O)N[C@@H](CCCNC(=N)CF)C(=O)N[C@@H](CC(=O)O)C(=O)N[C@@H](Cc1ccccc1)C(=O)N[C@@H](Cc1ccccc1)C(=O)N[C@@H](Cc1ccc(O)cc1)C(=O)N[C@@H](CO)C(=O)N[C@@H](CC(=O)O)C(N)=O
Recombinant human PAD2 [5]
  conversion of 0708-30 by PAD2, 10 µM inhibitor: 52%
  conversion of 0708-30 by PAD2, 50 µM inhibitor: 17%
  conversion of 0708-30 by PAD2, 100 µM inhibitor: 7%
Recombinant human PAD4 [6]
  conversion of 0708-30 by PAD4, 10 µM inhibitor: 50%
  conversion of 0708-30 by PAD4, 50 µM inhibitor: 20%
  conversion of 0708-30 by PAD4, 100 µM inhibitor: 16%

B11: 0837-28FA (peptide)
peptide: 2Naphthylsulfonyl-KWH[Orn(fluoroacetimidoyl)]DFF[AEEA]-NH2
SMILES: N=C(CF)NCCC[C@H](NC(=O)[C@H](Cc1c[nH]cn1)NC(=O)[C@H](Cc1c[nH]c2ccccc12)NC(=O)[C@H](CCCCN)NS(=O)(=O)c1ccc2ccccc2c1)C(=O)N[C@@H](CC(=O)O)C(=O)N[C@@H](Cc1ccccc1)C(=O)N[C@@H](Cc1ccccc1)C(=O)NCCOCCOCC(N)=O
Recombinant human PAD4 [3]
  Inhibition of PAD4: value at 10 µM inhibitor (0 µM: 67): 37%
  Inhibition of PAD4: value at 20 µM inhibitor (0 µM: 67): 23%
  Inhibition of PAD4: value at 40 µM inhibitor (0 µM: 67): 17%
  Inhibition of PAD4: value at 80 µM inhibitor (0 µM: 67): 9%
Recombinant human PAD2 [4]
  Inhibition of PAD2: value at 10 µM inhibitor (0 µM: 76): 17%
  Inhibition of PAD2: value at 20 µM inhibitor (0 µM: 76): 8%
  Inhibition of PAD2: value at 40 µM inhibitor (0 µM: 76): 4%
  Inhibition of PAD2: value at 80 µM inhibitor (0 µM: 76): 2%
